Columns and labels:
[1] = biological target: TBP (TATA-box binding protein) (Homo sapiens, UniProt P20226 1-339); test: femtosecond UV laser crosslinking, western blot; 2 mM MgCl2; 50 nJ, 1.25 J; NF1 binding buffer: 5 mM Tris-Cl pH 8.0, 90 mM NaCl (200 mM for EMSA and Fig. 2d), 0.5 mM EDTA, 5% glycerol, 0.55 mM beta-mercaptoethanol, 1 ug BSA; TBP: same + 2 mM MgCl2; 25 min, room temperature; details: protein: commercial; label: 5'-biotin on both strands
[2] = biological target: T1, NF1 (nuclear factor 1/C) (Sus scrofa (porcine), UniProt P21999 1-506); test: EMSA; 200 mM NaCl; protein:DNA 2.1:1 to 11:1; NF1 binding buffer: 5 mM Tris-Cl pH 8.0, 90 mM NaCl (200 mM for EMSA and Fig. 2d), 0.5 mM EDTA, 5% glycerol, 0.55 mM beta-mercaptoethanol, 1 ug BSA; TBP: same + 2 mM MgCl2; 25 min, room temperature; details: protein: recombinant; tags: 6xHis; chain copies: 2; label: 5'-biotin on both strands
[3] = biological target: T1, NF1 (nuclear factor 1/C); test: femtosecond UV laser crosslinking, western blot; 200 mM NaCl; 50 nJ pulses, total energy titrated; NF1 binding buffer: 5 mM Tris-Cl pH 8.0, 90 mM NaCl (200 mM for EMSA and Fig. 2d), 0.5 mM EDTA, 5% glycerol, 0.55 mM beta-mercaptoethanol, 1 ug BSA; TBP: same + 2 mM MgCl2; 25 min, room temperature; details: protein: recombinant; tags: 6xHis; chain copies: 2; label: 5'-biotin on both strands

T1 sequence (P21999 whole entry): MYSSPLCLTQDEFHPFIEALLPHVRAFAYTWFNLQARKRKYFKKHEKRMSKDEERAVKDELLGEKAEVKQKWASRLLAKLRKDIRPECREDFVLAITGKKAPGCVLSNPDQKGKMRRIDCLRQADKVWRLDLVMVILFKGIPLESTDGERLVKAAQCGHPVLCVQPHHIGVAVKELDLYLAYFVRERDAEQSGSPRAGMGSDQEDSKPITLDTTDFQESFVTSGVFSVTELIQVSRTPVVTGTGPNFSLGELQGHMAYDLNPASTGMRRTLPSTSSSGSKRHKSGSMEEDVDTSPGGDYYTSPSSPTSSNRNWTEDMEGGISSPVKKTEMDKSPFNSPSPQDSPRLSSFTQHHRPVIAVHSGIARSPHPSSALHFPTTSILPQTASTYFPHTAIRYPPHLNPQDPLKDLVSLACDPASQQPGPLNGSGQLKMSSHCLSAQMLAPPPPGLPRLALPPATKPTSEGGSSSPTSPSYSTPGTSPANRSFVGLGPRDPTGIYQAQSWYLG
TBP (TATA-box binding protein), sequence (P20226 whole entry): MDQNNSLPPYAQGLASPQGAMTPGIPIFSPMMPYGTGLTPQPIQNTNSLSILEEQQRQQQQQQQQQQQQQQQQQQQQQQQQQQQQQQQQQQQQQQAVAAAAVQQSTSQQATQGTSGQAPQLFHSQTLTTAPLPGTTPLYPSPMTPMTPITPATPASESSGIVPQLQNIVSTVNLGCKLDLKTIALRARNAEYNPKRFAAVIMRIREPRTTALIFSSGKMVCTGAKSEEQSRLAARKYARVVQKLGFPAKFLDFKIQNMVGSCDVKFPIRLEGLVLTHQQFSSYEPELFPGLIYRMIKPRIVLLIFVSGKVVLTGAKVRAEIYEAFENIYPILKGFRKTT

B1: TBP wild-type AdML TATAA oligo (dsDNA)
DNA 1: CCTGAAGGGGGGCTATAAAAGGGGGTGGGGGCGCG
DNA 2: CGCGCCCCCACCCCCTTTTATAGCCCCCCTTCAGG
binding result [1]: binds

B2: NF1 wild-type consensus oligo (dsDNA)
DNA 1: AATTCCTTTTTTTGGATTGAAGCCAATCGGATAATGAGG
DNA 2: CCTCATTATCCGATTGGCTTCAATCCAAAAAAAGGAATT
binding result [2]: binds

B3: NF1 wild-type oligo of Fig. 2d (dsDNA)
DNA 1: AAGTCCTTTTTTAGGATTGAAGCCAATCGGCTGATGAGG
DNA 2: CCTCATCAGCCGATTGGCTTCAATCCTAAAAAAGGACTT
binding result [3]: binds
